Assay results reported in article PMC9629070 (Autophagy, 2022).

Assays:
Test in all cases: pull-down
GAPC2-His = GAPC2-His (Arabidopsis thaliana, UniProt Q9FX54 1-338)
GAPC1-His = GAPC1-His (Arabidopsis thaliana, UniProt P25858 1-338)
GST-ATG6 = target: T1, GST-ATG6 (Arabidopsis thaliana, UniProt Q9M367 1-517)
T1 sequence (looked up): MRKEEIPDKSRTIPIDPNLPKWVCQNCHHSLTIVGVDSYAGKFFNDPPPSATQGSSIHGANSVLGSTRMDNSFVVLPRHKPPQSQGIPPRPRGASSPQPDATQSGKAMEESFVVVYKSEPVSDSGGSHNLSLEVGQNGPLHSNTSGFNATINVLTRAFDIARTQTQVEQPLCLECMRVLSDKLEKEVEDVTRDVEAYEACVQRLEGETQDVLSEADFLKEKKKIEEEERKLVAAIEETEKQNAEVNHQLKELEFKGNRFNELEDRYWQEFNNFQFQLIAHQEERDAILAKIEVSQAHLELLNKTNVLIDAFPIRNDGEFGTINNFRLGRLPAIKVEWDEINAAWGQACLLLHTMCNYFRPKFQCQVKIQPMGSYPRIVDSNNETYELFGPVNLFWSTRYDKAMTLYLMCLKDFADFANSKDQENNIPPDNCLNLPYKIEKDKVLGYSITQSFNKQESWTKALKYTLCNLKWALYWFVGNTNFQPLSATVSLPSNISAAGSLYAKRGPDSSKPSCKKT

GAPC2-His, sequence (Q9FX54 whole entry): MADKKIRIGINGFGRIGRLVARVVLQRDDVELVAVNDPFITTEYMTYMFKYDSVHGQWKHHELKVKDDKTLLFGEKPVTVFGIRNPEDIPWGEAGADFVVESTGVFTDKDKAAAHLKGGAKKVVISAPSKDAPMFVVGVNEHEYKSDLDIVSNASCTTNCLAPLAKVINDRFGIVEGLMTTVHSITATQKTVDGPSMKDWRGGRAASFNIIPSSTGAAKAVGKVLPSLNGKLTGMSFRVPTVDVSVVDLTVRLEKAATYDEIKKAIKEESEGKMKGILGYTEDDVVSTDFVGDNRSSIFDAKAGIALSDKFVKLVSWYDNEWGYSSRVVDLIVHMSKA
GAPC1-His, sequence (P25858 whole entry): as the sequence (Q9FX54 whole entry) above, with H61N, V65I, D68E, G92A, F98Y, S227A, M274L counted along it

B1: GST-ATG3 (natural protein, Arabidopsis thaliana, UniProt Q0WWQ1 1-313, looked up)
chain: MVLSQKLHEAFKGTVERITGPRTISAFKEKGVLSVSEFVLAGDNLVSKCPTWSWESGDASKRKPYLPSDKQFLITRNVPCLRRAASVAEDYEAAGGEVLVDDEDNDGWLATHGKPKDKGKEEDNLPSMDALDINEKNTIQSIPTYFGGEEDDDIPDMEEFDEADNVVENDPATLQSTYLVAHEPDDDNILRTRTYDLSITYDKYYQTPRVWLTGYDESRMLLQPELVMEDVSQDHARKTVTIEDHPHLPGKHASVHPCRHGAVMKKIIDVLMSRGVEPEVDKYLFLFLKFMASVIPTIEYDYTMDFDLGSSST
binding result (GAPC2-His): binds
binding result (GAPC1-His): binds

B2: PGK3-His (natural protein, Arabidopsis thaliana, UniProt Q9SAJ4 1-401, looked up)
chain: MATKRSVGTLKEADLKGKSVFVRVDLNVPLDDNSNITDDTRIRAAVPTIKYLMGNGSRVVLCSHLGRPKGVTPKYSLKPLVPRLSELLGVEVVMANDSIGEEVQKLVAGLPEGGVLLLENVRFYAEEEKNDPEFAKKLAALADVYVNDAFGTAHRAHASTEGVAKFLKPSVAGFLMQKELDYLVGAVANPKKPFAAIVGGSKVSTKIGVIESLLNTVDILLLGGGMIFTFYKAQGLSVGSSLVEEDKLDLAKSLMEKAKAKGVSLLLPTDVVIADKFAPDANSKIVPATAIPDGWMGLDIGPDSIKTFSEALDTTKTIIWNGPMGVFEFDKFAAGTEAVAKQLAELSGKGVTTIIGGGDSVAAVEKVGLADKMSHISTGGGASLELLEGKPLPGVLALDEA
binding result (GST-ATG6): binds
